Test results: patent US20210363257A1 (Pieris, published 2021)

Experiments:
[1] = molecular target: T1, human CD137 expressed on cells (human, UniProt Q07011 24-255); assay: flow cytometry, Flp-In-CHO::huCD137 cells
T1 construct: whole, on cells; also called Flp-In-CHO::huCD137; NFκB-luc2/CD137 Jurkat cells
Experimental: (§1) The geometric means of the fluorescence intensity were used to calculate EC₅₀ values using nonlinear regression (shared bottom, SLOPE=1).
(§2) 5×10⁴ cells per well were incubated for 1 h in ice-cold PBS containing 5% fetal calf serum (PBS-FCS). A dilution series of the fusion proteins and control antibodies were added to the cells and incubated for 1 h on ice. Cells were washed twice with PBS and then incubated with a goat anti-hIgG Alexa647-labeled antibody for 30 min on ice. Cells were subsequently washed and analyzed using iQue Flow cytometer (Intellicyte Screener). Mean geometric fluorescent signals were plotted and fitted with Graphpad software using nonlinear regression (shared bottom, SLOPE=1).

[2] = molecular target: T2, human PD-L1 expressed on cells (human, UniProt Q9NZQ7 19-290); assay: flow cytometry, Flp-In-CHO::huPDL-1 cells
T2 construct: whole, on cells; also called Flp-In-CHO::huPDL-1; RKO cells
Experimental: as §1, §2

[3] = molecular target: T2, human PD-L1 expressed on cells; assay: flow cytometry, RKO tumor cells (PD-L1-positive)
Experimental: as §2
For flow cytometric analysis, RKO cells were incubated with fusion proteins and detected using a fluorescently labeled anti-human IgG antibody as described in Example 6.

[4] = molecular target: cyCD137-Fc (cynomolgus CD137 C-terminally fused to Fc) (cynomolgus); assay: ELISA, cyCD137-Fc coated, detection anti-NGAL-HRP
Experimental: Recombinant huPD-L1-His or cyPD-L1-His (human or cynomolgus PD-L1 with a C-terminal polyhistidine tag, R&D Systems or Sino Biologics) at the concentration of 1 μg/mL in PBS was coated overnight on microtiter plates at 4° C. After washing with PBS-0.05% T (PBS supplemented with 0.05% (v/v) Tween 20), the plates were blocked with 2% BSA (w/v) in PBS-0.1% T (PBS supplemented with 0.1% (v/v) Tween 20) for 1 h at room temperature. […] Bound molecules under study were detected by incubation with 1:5000 diluted anti-human IgG Fc-HRP (Jackson Laboratory) in PBS-0.1% T-2% BSA. After an additional wash step, fluorogenic HRP substrate (QuantaBlu, Thermo) was added to each well and the fluorescence intensity was detected using a fluorescence microplate reader.
The same ELISA setup was also employed to determine the binding potency of fusion proteins to CD137, where huCD137-His (human CD137 with C-terminal polyhistidine tag, R&D Systems) or cyCD137-Fc (cynomolgus CD137 C-terminally fused to Fc) was instead coated on a microtiter plate. The testing agents were similarly titrated and bound agents were detected via anti-NGAL-HRP.

[5] = molecular target: T3, huPD-L1-His (human PD-L1 with a C-terminal polyhistidine tag) (human, UniProt Q9NZQ7 19-239); assay: SPR (Biacore), binder captured by anti-human IgG Fc, huPD-L1-His in solution, 25 C, 1:1 model
T3 construct: Bought; also called biotinylated huPD-L1-His
Experimental: The binding kinetics and affinity of exemplary fusion proteins to huPD-L1-His or huCD137-His (human PD-L1 or human CD137 with a C-terminal polyhistidine tag, R&D Systems) were determined by surface plasmon resonance (SPR) using a Biacore 8K or a Biacore T200 (GE Healthcare).
The anti-human IgG Fc antibody (GE Healthcare) was immobilized on a CM5 sensor chip using standard amine chemistry: the carboxyl groups on the chip were activated using 1-ethyl-3-(3-dimethylaminopropyl)-carbodiimide (EDC) and N-hydroxysuccinimide (NHS). Subsequently, anti-human IgG Fc antibody solution (GE Healthcare) at a concentration of 25 μg/mL in 10 mM sodium acetate (pH 5.0) was applied at a flow rate of 5 μL/min until an immobilization level of 6000-10000 resonance units (RU) was achieved. Residual non-reacted NHS-esters were blocked by passing a solution of 1M ethanolamine across the surface. The reference channel was treated in an analogous manner. […] After each capture step, the needle was washed.
Double referencing was used and the 1:1 binding model was used to fit the raw data.

[6] = molecular target: T4, biotinylated huCD137-Fc (human CD137 Fc fusion) (human, UniProt Q07011 24-186, biotinylated); assay: competitive ELISA, antibody SEQ ID NOs: 28 and 29 coated (competitor), 1 nM huCD137-Fc-bio tracer, binder titrated
T4 construct: Bought; also called huCD137-Fc-bio
Experimental: The plates were washed five times after each incubation step with 100 μL PBS-0.05% T (PBS supplemented with 0.05% (v/v) Tween 20). The plates were blocked with 2% BSA (w/v) in PBS-0.1% T (PBS supplemented with 0.1% (v/v) Tween 20) for 1 h at room temperature and subsequently washed again. […] The mixtures of testing molecules and the tracer were added to the plates and incubated for 20 min at room temperature following by five washing steps with 100 μL PBS-0.05% T. Subsequently, a 1:5000 dilution of ExtrAvidin-HRP (Sigma-Aldrich) in PBS-0.1% T-2% BSA was added to the wells and incubated for 1 h. After an additional wash step, fluorogenic HRP substrate (QuantaBlu, Thermo) was added to each well, and the fluorescence intensity was detected using a fluorescence microplate reader.
Competition data for an exemplary experiment are shown in FIG. 14, where the x-axis represents testing molecule concentration and the y-axis represents the measured trace molecule concentration. The data were fit to a 1:1 sigmoidal curve, where the IC₅₀ value and the maximum signal were free parameters, and the slope was fixed to unity.

[7] = molecular target: T5, huPD-L1-Fc (recombinant human PD-L1 Fc fusion) (human, UniProt Q9NZQ7 19-239); assay: competitive ELISA, huPD-1-His coated, 15 nM huPD-L1-Fc tracer, binder titrated
T5 construct: Bought; also called tracer huPD-L1-Fc
Experimental: Recombinant huPD-1-His (Acrobiosystems) in PBS (1 μg/mL) was coated overnight on microtiter plates at 4° C. The plates were washed five times after each incubation step with 100 μL PBS-0.05% T (PBS supplemented with 0.05% (v/v) Tween 20). The plates were blocked with 2% BSA (w/v) in PBS-0.1% T (PBS supplemented with 0.1% (v/v) Tween 20) for 1 h at room temperature and subsequently washed again. […] The mixtures of fusion proteins and the tracer were added to the plates and incubated for 20 min at room temperature following by five washing steps with 100 μL PBS-0.05% T. Subsequently, a 1:5000 dilution of goat-anti human IgG-Fc HRP (Jackson) was added to the wells and incubated for 1 h. After an additional wash step, fluorogenic HRP substrate (QuantaBlu, Thermo) was added to each well, and the fluorescence intensity was detected using a fluorescence microplate reader.

Row | Binder | EC50 [1] [nM] | EC50 [2] [nM] | EC50 [3] [nM] | EC50 [4] [nM] | Kd [5] [nM] | koff [5] [s⁻¹] | kon [5] [M⁻¹ s⁻¹] | IC50 [6] [nM] | IC50 [7] [nM]
1 | fusion protein SEQ ID NOs: 86 and 91 (bispecific antibody, human IgG4 S228P, kappa, F234A L235A, Antibody-lipocalin mutein fusion, IgG4 S228P backbone; Bivalent to CD137) heavy: not shown light: EIVLTQSPDTLSVTPKEKVTLTCRASQSIGTNIHWFQQKPGQSPKLLIKYASESISGVPSRFSGSGSGTDFTLTINSVEAEDAATYYCQQSNSWPYTFGQGTKLEIKRTVAAPSVFIFPPSDEQLKSGTASVVCLLNNFYPREAKVQWKVDNALQSGNSQESVTEQDSKDSTYSLSSTLTLSKADYEKHKVYACEVTHQGLSSPVTKSFNRGECGGGGSGGGGSGGGGSQDSTSDLIPAPPLSKVPLQQNFQDNQFHGKWYVVGQAGNIRLREDKDPIKMMATIYELKEDKSYDVTMVKFDDKKCMYDIWTFVPGSQPGEFTLGKIKSFPGHTSSLVRVVSTNYNQHAMVFFKFVFQNREEFYITLYGRTKELTSELKENFIRFSKSLGLPENHIVFPVPIDQCIDG | 6.48 | 1.43 | 0.45 | 13 | 0.568 | 0.000748 | 1.32e+06 | 0.99 | 3
2 | fusion protein SEQ ID NOs: 90 and 87 (bispecific antibody, human IgG4 S228P, kappa, F234A L235A, Bivalent to CD137) heavy: not shown light: EIVLTQSPDTLSVTPKEKVTLTCRASQSIGTNIHWFQQKPGQSPKLLIKYASESISGVPSRFSGSGSGTDFTLTINSVEAEDAATYYCQQSNSWPYTFGQGTKLEIKRTVAAPSVFIFPPSDEQLKSGTASVVCLLNNFYPREAKVQWKVDNALQSGNSQESVTEQDSKDSTYSLSSTLTLSKADYEKHKVYACEVTHQGLSSPVTKSFNRGEC | 3.74 | 3.64 | 0.51 | 5.9 | 0.592 | 0.000769 | 1.3e+06 | 1.1 | 2.3
